Experimental data: patent US20090149343

Target: 48 discrete histone H3 peptides containing a wide range of histone modifications at defined residues (micro-array bound)

B1: recombinant human histone methyl-transferase SET 7/9 (protein)
chain: MDSDDEMVEEAVEGHLDDDGLPHGFCTVTYSSTDRFEGNFVHGEKNGRGKFFFFDGSTLEGYYVDDALQGQGVYTYEDGGVLQGTYVDGELNGPAQEYDTDGRLIFKGQYKDNIRHGVCWIYYPDGGSLVGEVNEDGEMTGEKIAYVYPDERTALYGKFIDGEMIEGKLATLMSTEEGRPHFELMPGNSVYHFDKSTSSCISTNALLPDPYESERVYVAESLISSAGEGLFSKVAVGPNTVMSFYNGVRITHQEVDSRDWALNGNTLSLDEETVIDVPEPYNHVSKYCASLGHKANHSFTPNCIYDMFVHPRFGPIKCIRTLRAVEADEELTVAYGYDHSPPGKSGPEAPEWYQVELKAFQATQQK
SET 7/9 dependent methylation of micro-array bound histone peptides, detected by anti-H3K4me1 antibody: also detects a large number of newly created additional sites containing this epitope after HMTase incubation
